Holding throughout (test): EMSA
The target of data set [1] is T1, PAN (…) WT (Arabidopsis thaliana, UniProt Q9SX27 1-452).
T1 sequence: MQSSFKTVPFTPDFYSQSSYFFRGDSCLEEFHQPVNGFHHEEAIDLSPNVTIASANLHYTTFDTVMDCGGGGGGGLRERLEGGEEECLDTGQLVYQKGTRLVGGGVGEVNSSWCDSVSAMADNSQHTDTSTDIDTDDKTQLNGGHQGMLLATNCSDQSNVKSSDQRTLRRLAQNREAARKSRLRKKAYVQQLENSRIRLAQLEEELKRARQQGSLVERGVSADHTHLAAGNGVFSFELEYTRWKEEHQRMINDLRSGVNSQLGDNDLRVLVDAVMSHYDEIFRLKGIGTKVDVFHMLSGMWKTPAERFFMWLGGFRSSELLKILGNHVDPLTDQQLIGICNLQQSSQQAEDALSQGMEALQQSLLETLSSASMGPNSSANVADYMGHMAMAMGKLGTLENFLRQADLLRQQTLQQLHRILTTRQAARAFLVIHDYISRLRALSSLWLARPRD

A further data set has as its target T2, PAN 5 Cys to Ser (Arabidopsis thaliana, UniProt Q9SX27 1-452, C27S;C68S;C87S;C114S;C154S).
T2 sequence: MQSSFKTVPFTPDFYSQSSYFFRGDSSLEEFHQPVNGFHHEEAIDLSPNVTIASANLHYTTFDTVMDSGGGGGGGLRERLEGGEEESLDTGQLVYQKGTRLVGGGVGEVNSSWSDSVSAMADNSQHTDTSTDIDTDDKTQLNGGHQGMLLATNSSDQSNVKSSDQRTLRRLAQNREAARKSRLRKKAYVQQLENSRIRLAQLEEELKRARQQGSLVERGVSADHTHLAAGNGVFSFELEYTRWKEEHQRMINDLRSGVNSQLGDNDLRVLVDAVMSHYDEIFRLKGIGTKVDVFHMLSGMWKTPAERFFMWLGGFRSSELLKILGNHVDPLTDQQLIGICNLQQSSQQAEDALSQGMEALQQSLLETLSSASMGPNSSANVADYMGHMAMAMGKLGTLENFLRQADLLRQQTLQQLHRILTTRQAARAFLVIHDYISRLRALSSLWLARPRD

For a further data set, the target named is T3, PAN 6 Cys to Ser (Arabidopsis thaliana, UniProt Q9SX27 1-452, C27S;C68S;C87S;C114S;C154S;C340S).
T3 sequence: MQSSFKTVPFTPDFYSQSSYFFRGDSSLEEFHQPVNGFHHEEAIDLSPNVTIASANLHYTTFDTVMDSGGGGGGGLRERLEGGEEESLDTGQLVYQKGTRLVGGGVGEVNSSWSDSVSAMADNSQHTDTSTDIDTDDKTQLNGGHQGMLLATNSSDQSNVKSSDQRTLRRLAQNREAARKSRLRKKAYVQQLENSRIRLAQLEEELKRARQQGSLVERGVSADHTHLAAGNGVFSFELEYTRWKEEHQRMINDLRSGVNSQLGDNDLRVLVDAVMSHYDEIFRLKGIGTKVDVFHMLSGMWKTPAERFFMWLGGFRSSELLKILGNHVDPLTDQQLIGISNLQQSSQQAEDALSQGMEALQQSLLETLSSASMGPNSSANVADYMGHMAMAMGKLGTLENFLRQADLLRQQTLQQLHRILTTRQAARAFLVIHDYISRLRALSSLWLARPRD

Data set [2] addresses T1, PAN (…) WT. This is another data set of the same source.

Like-named read-outs stand apart in the source and are kept apart here.

B1: TGACGT WT probe (dsDNA)
DNA 1: ATCAGATCTAATTGACGTGATAGCATATAGA
DNA 2: TCTATATGCTATCACGTCAATTAGATCTGAT
For B1, the binding result in the data set with PAN (…) WT [1], with PAN 5 Cys to Ser and with PAN 6 Cys to Ser was “binds” each time.

B2: TGATTT mutated probe (M) (dsDNA)
DNA 1: ATCAGATCTAATTGATTTGATAGCATATAGA
DNA 2: TCTATATGCTATCAAATCAATTAGATCTGAT
In the case of B2, in the data set with PAN (…) WT [2], the binding result was “no binding”.

(Values after article doi:10.1101/2025.10.14.682262.)
